How the values were obtained:
[1] = biological target: collagen (collagen-coated microtiter wells and culture plates; collagen matrices); experiment: about 1 µg protein on collagen-coated microtiter plates, washes of rising stringency, immunodetection with DAB
[2] = biological target: collagen (collagen-coated microtiter wells and culture plates; collagen matrices); experiment: cell-based or functional assay

With “purified, renatured SU-ECB-CEE+ chimeric envelope protein (His×6 tag, von Willebrand Factor derived collagen binding domain, mature SU region of MoMuLV env gp70, residues 34 to 474) (from UniProt P03385 52-474)” the urea needed to release the collagen-bound protein [1] was 3 M.

Substance “chimeric ECB-CEE+ Moloney Murine Leukemia Virus gp70 envelope protein with collagen binding domain, on retroviral vector particles (from UniProt P03385 52-469)” has a transduction efficiency of NIH 3T3 cells overlaid upon the virus-bound collagen [2] of 20 to 40%.
